Experimental data: the DeepSol protein solubility set

Experiment: soluble on expression in E. coli; label from the status in PepcDB or PDB records

Sequence | soluble on expression in E. coli
MHHHHHHSSGVDLGTENLYFQSMVDATRVPMDERFRTLKKKLEEGMVFTEYEQIPKKKANGIFSTAALPENAERSRIREVVPYEENRVELIPTKENNTGYINASHIKVVVGGAEWHYIATQGPLPHTCHDFWQMVWEQGVNVIAMVTAEEEGGRTKSHRYWPKLGSKHSSATYGKFKVTTKFRTDSVCYATTGLKVKHLLSGQERTVWHLQYTDWPDHGCPEDVQGFLSYLEEIQSVRRHTNSMLEGTKNRHPPIVVHCSAGVGRTGVLILSELMIYCLEHNEKVEVPMMLRLLREQRMFMIQTIAQYKFVYQVLIQFLQNSRLI | soluble
MRYEALRLLCFFDLPMESKDEKRIYRNFRKELISNGFEMLQFSVYYRTCPNRSFANKFYKKLKMSNLPAGNVRLLAVTEKQFSEMTLIIGGKTKQEEIVSDNKLVIILEHHHHHH | soluble
MGSDKIHHHHHHADPFASITHLVDSAMVNKTDSIDREKTSDEPKPIEADESFDDFIYNFASDDALQRQRVVFPLPYYNGERASKIDRKYWKHDDLFAKQSYYTLLFDREEDMDLVGDTSLTSVQVEWIFVKKRMVKKYYFERIKGAWMLEAINLRPIEENENEDFVEFFGHFATDSIFQSRRIRQPLVFVTTDPDDDFSILETTLDLNQWFAFKPALPADKLSNINYGQQNDDNASHKILALKGIGNGFSNILYFQRKDSGWELYKFEDTSI | not soluble
MGKLFGTFGVRGIANEKITPEFAMKIGMAFGTLLKREGRKKPLVVVGRDTRVSGEMLKEALISGLLSVGCDVIDVGIAPTPAVQWATKHFNADGGAVITASHNPPEYNGIKLLEPNGMGLKKEREAIVEELFFKEDFDRAKWYEIGEVRREDIIKPYIEAIKSKVDVEAIKKRKPFVVVDTSNGAGSLTLPYLLRELGCKVITVNAQPDGYFPARNPEPNEENLKEFMEIVKALGADFGVAQDGDADRAVFIDENGRFIQGDKTFALVADAVLKEKGGGLLVTTVATSNLLDDIAKKHGAKVMRTKVGDLIVARALYENNGTIGGEENGGVIFPEHVLGRDGAMTVAKVVEIFAKSGKKFSELIDELPKYYQIKTKRHVEGDRHAIVNKVAEMARERGYTVDTTDGAKIIFEDGWVLVRASGTEPIIRIFSEAKSKEKAQEYLNLGIELLEKALS | soluble
MTTYAALLRGINVGGNKKVPMAELRTLLQGLGYGGVATYLQSGNAVFTSDHGDEQSLAAEVGQAIEKRFGFTVDVLVRDHAYLKAVREACPFPAAELEAKQLHVTYFSGPVDAERFASLDQPAFLPEEFRLGDRALYLYAPDGLGRSKLGETLARPRLLKGIVATSRNWNTVVKLEELTGA | not soluble
MPSENPIGKTMKSIDEQSLHNARRLFESGDIDRIEVGTTAGLQQIHRYLFGGLYDFAGQIREDNISKGGFRFANAMYLKEALVKIEQMPERTFEEIIAKYVEMNIAHPFLEGNGRSTRIWLDLVLKKNLKKVVNWQNVSKTLYLQAMERSPVNDLELRFLLKDNLTDDVDNREIIFKGIEQSYYYEGYEKG | soluble
MGHHHHHHSHMRCQESMSAVLTAEQALKLVGEMFVYHMPFNRALGLELERYEKAFAQLAFNNQPMMVGNWAQSILHGGVIASALDVAAGLVCVGSTLTRHETISEDELRQRLSRMGTIDLRVDYLRPGRGNRFTATSSLLRAGNKVAVARVELHNEDQLYIASATATYMVG | not soluble
MSLNATIVDIARRANVTNITVSRTFNQPGLVKQETREKIHAIAKELNYVPNAFAQGLKRSSSQIIGIVTSSMYNPFYSELIQTVSRIARTQCYQIMLFDTDGSEEAEMEAIQALFGYKACGILLSPVRDDKNYQPAYLDLAETYRVPLILIDRDIYNRQLSGVFLNNKEIGLLAGKYLSEQPERKMLIIGGPAESEITRVRIEGIINALENKKNDVHIINGDYDFISQEAAVRDYLSSPQNQPDYIIGLNGILTLGAIAICHELKIYNNIKFFSIDEPPKAADYGLHIAGVYHDTQMLGEIAAELLFNAIKKPHNDQAVRREFFTGSLLTHEGHHHHHH | soluble
MLLLIDNYDSFTYNLYQYFCELGTEVMVKRNDELQLTDIEQLAPSHVVISPGPCTPNEAGISLAVIRHFADKLPILGVCLGHQALGQAFGARVVRARQVMHGKTSAICHSGQGVFRGLNQPLTVTRYHSLVIATDSLPGRFELTAWTERGGEMDEIMGIRHRTLPLEGVQFHPESILSEQGHQLLDNFLKN | not soluble
